Laboratory results as given in the supplement of paper PMC9112550, “Optimization of the antimicrobial peptide Bac7 by deep mutational scanning” (BMC Biology, 2022).

Tested on: Escherichia coli TOP10
Test: shrunken log2 fold change of peptide-encoding DNA abundance (4.5 h post-induction vs induction); higher = less antimicrobial activity (less host growth inhibition)
Details: time post-induction: 4.5 h; library: site-saturation at positions 5, 18, 19, 20
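Note: peptides expressed intracellularly from a pBAD plasmid library in pooled LB shake-flask culture, induced with 0.3% L-arabinose, DNA abundance read by NGS, three biological replicates, DESeq2 with apeglm shrinkage.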

Sequence	shrunken log2 fold change
RRIRKRPPRLPRPRPRPYWWPRP	-0.454
RRIRWRPPRLPRPRPRPMWQPRP	0.016
RRIRQRPPRLPRPRPRPTSFPRP	-0.0413
RRIRHRPPRLPRPRPRPFMFPRP	-0.66
RRIRVRPPRLPRPRPRPSTGPRP	-0.00698
RRIRYRPPRLPRPRPRPIIIPRP	-0.161
RRIRARPPRLPRPRPRPRRHPRP	1.65
RRIRFRPPRLPRPRPRPGQSPRP	0.0525
RRIRNRPPRLPRPRPRPIYMPRP	-0.473
RRIRMRPPRLPRPRPRPKHYPRP	-0.0523
RRIRMRPPRLPRPRPRPTSEPRP	0.511
RRIRVRPPRLPRPRPRPACPPRP	0.311
RRIRIRPPRLPRPRPRPRGMPRP	0.0423
RRIRTRPPRLPRPRPRPRGGPRP	0.334
RRIRPRPPRLPRPRPRPYMLPRP	-0.781
RRIRARPPRLPRPRPRPIDLPRP	0.289
RRIRFRPPRLPRPRPRPDWKPRP	0.0379
RRIRNRPPRLPRPRPRPECDPRP	0.203
RRIRYRPPRLPRPRPRPVDLPRP	0.0483
RRIRQRPPRLPRPRPRPVKTPRP	0.139
RRIRLRPPRLPRPRPRPKRYPRP	0.0464
RRIRSRPPRLPRPRPRPSSFPRP	-0.356
RRIRGRPPRLPRPRPRPSPRPRP	0.927
RRIRGRPPRLPRPRPRPYDKPRP	-0.147
RRIRTRPPRLPRPRPRPEVKPRP	0.174

Sequence	shrunken log2 fold change
RRIRKRPPRLPRPRPRPHQMPRP	0.0681
RRIRRRPPRLPRPRPRPDRIPRP	0.14
RRIRIRPPRLPRPRPRPHPTPRP	-0.216
RRIRSRPPRLPRPRPRPWFPPRP	-0.331
RRIRVRPPRLPRPRPRPPSKPRP	1.13
RRIRTRPPRLPRPRPRPRRPPRP	0.493
RRIRWRPPRLPRPRPRPTMNPRP	-0.225
RRIRLRPPRLPRPRPRPQNCPRP	0.0117
RRIRRRPPRLPRPRPRPDWLPRP	0.365
RRIRVRPPRLPRPRPRPFNMPRP	-0.19
RRIRHRPPRLPRPRPRPTQDPRP	1.87
RRIRHRPPRLPRPRPRPDFIPRP	-0.391
RRIRKRPPRLPRPRPRPKGLPRP	-0.00973
RRIRDRPPRLPRPRPRPKKGPRP	0.26
RRIRPRPPRLPRPRPRPVWKPRP	0.218
RRIRLRPPRLPRPRPRPSNPPRP	-0.86
RRIRDRPPRLPRPRPRPMMPPRP	-0.00348
RRIRVRPPRLPRPRPRPTWPPRP	0.446
RRIRARPPRLPRPRPRPAQLPRP	0.324
RRIRMRPPRLPRPRPRPHGDPRP	-0.0284
RRIRGRPPRLPRPRPRPAWKPRP	0.122
RRIRARPPRLPRPRPRPEEAPRP	3.84
RRIRTRPPRLPRPRPRPRVKPRP	-0.0675
RRIRFRPPRLPRPRPRPLRPPRP	0.932
RRIRCRPPRLPRPRPRPGGMPRP	0.215
